How the values were obtained:
[1] = test system: HeLa Kyoto; assay: solubility in G1/S (NP-40 vs SDS abundance) (log2 ratio); higher = more soluble; conditions: cell cycle stage: G1/S
[2] = test system: HeLa Kyoto; assay: thermal stability score vs G1/S (z-score of summed log2 fold changes over temperatures); higher = more thermally stable than in G1/S
[3] = test system: HeLa Kyoto; assay: melting temperature (median over replicates), in situ; higher = more thermally stable
[4] = test system: HeLa Kyoto; assay: solubility change mitosis vs G1/S (difference of NP-40 vs SDS log2 ratios) (log2 ratio difference); higher = more soluble in mitosis
[5] = cell cycle stage: early G1 (4.5 h after nocodazole release)
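Throughout, for melting temperature (median over replicates), in situ: HeLa Kyoto cells synchronized by double thymidine or nocodazole block, proteins quantified by TMT10plex mass spectrometry, three independent biological replicates.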
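Throughout, for solubility change mitosis vs G1/S (difference of NP-40 vs SDS log2 ratios): synchronized HeLa Kyoto cells (double thymidine block for G1/S, nocodazole release for mitosis), protein amounts in NP-40 versus SDS lysates quantified by mass spectrometry, three biological replicates.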
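Throughout, for solubility in G1/S (NP-40 vs SDS abundance): HeLa Kyoto cells arrested at G1/S by double thymidine block, proteins quantified by TMT10plex mass spectrometry in mild NP-40 versus SDS extracts, three biological replicates.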
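Throughout, for thermal stability score vs G1/S (z-score of summed log2 fold changes over temperatures): synchronized HeLa Kyoto cells, proteins quantified by TMT10plex mass spectrometry, three biological replicates, mitosis taken 0.5 h after nocodazole release, G1/S directly after double thymidine block.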

Sequence of HACL1 (chain, as listed by the source): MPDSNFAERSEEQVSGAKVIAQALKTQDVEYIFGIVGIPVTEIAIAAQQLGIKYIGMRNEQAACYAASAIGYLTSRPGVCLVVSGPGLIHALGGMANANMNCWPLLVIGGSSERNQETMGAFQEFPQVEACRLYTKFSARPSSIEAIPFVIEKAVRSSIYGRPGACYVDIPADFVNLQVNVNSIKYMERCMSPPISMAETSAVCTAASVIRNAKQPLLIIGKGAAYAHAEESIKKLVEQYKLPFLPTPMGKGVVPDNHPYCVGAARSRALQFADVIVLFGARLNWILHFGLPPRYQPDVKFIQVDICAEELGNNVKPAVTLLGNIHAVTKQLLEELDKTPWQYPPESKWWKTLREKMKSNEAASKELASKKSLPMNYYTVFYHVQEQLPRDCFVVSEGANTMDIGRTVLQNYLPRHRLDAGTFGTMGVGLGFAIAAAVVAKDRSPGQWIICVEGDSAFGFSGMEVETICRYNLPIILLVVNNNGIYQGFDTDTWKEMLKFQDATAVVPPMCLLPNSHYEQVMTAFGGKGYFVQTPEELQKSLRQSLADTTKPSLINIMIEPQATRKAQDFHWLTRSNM

| Substance | solubility in G1/S (log2) [1] | thermal stability score [2, 5] | thermal stability score ([2]; cell cycle stage: mitosis) | melting temperature ([3]; cell cycle stage: G1/S) | melting temperature ([3]; cell cycle stage: mitosis) | solubility change mitosis (log2) [4] |
| --- | --- | --- | --- | --- | --- | --- |
| MAAAMPLALLVLLLLGPGGWCLAEPPRDSLREELVITPLPSGDVAATFQFRTRWDSELQREGVSHYRLFPKALGQLISKYSLRELHLSFTQGFWRTRYWGPPFLQAPSGAELWVWFQDTVTDVDKSWKELSNVLSGIFCASLNFIDSTNTVTPTASFKPLGLANDTDHYFLRYAVLPREVVCTENLTPWKKLLPCSSKAGLSVLLKADRLFHTSYHSQAVHIRPVCRNARCTSISWELRQTLSVVFDAFITGQGKKDWSLFRMFSRTLTEPCPLASESRVYVDITTYNQDNETLEVHPPPTTTYQDVILGTRKTYAIYDLLDTAMINNSRNLNIQLKWKRPPENEAPPVPFLHAQRYVSGYGLQKGELSTLLYNTHPYRAFPVLLLDTVPWYLRLYVHTLTITSKGKENKPSYIHYQPAQDRLQPHLLEMLIQLPANSVTKVSIQFERALLKWTEYTPDPNHGFYVSPSVLSALVPSMVAAKPVDWEESPLFNSLFPVSDGSNYFVRLYTEPLLVNLPTPDFSMPYNVICLTCTVVAVCYGSFYNLLTRTFHIEEPRTGGLAKRLANLIRRARGVPPL [PIGT] | 0.0123 | 1.75 | 1.86 | 53.8 °C | 52.5 °C | -0.141 |
| ANKRD17 | -0.13 | -0.291 | 0.712 | 49.8 °C | 49.9 °C | 0.0244 |
| MGRAGAAAVIPGLALLWAVGLGSAAPSPPRLRLSFQELQAWHGLQTFSLERTCCYQALLVDEERGRLFVGAENHVASLNLDNISKRAKKLAWPAPVEWREECNWAGKDIGTECMNFVKLLHAYNRTHLLACGTGAFHPTCAFVEVGHRAEEPVLRLDPGRIEDGKGKSPYDPRHRAASVLVGEELYSGVAADLMGRDFTIFRSLGQRPSLRTEPHDSRWLNEPKFVKVFWIPESENPDDDKIYFFFRETAVEAAPALGRLSVSRVGQICRNDVGGQRSLVNKWTTFLKARLVCSVPGVEGDTHFDQLQDVFLLSSRDHRTPLLYAVFSTSSSIFQGSAVCVYSMNDVRRAFLGPFAHKEGPMHQWVSYQGRVPYPRPGMCPSKTFGTFSSTKDFPDDVIQFARNHPLMYNSVLPTGGRPLFLQVGANYTFTQIAADRVAAADGHYDVLFIGTDVGTVLKVISVPKGSRPSAEGLLLEELHVFEDSAAVTSMQISSKRHQLYVASRSAVAQIALHRCAAHGRVCTECCLARDPYCAWDGVACTRFQPSAKRRFRRQDVRNGDPSTLCSGDSSRPALLEHKVFGVEGSSAFLECEPRSLQARVEWTFQRAGVTAHTQVLAEERTERTARGLLLRRLRRRDSGVYLCAAVEQGFTQPLRRLSLHVLSATQAERLARAEEAAPAAPPGPKLWYRDFLQLVEPGGGGSANSLRMCRPQPALQSLPLESRRKGRNRRTHAPEPRAERGPRSATHW [SEMA3B] | -0.625 | 4.5 | 7.7 | 55.1 °C | 57.9 °C | -0.384 |
| MNTAPSRPSPTRRDPYGFGDSRDSRRDRSPIRGSPRREPRDGRNGRDARDSRDIRDPRDLRDHRHSRDLRDHRDSRSVRDVRDVRDLRDFRDLRDSRDFRDQRDPMYDRYRDMRDSRDPMYRREGSYDRYLRMDDYCRRKDDSYFDRYRDSFDGRGPPGPESQSRAKERLKREERRREELYRQYFEEIQRRFDAERPVDCSVIVVNKQTKDYAESVGRKVRDLGMVVDLIFLNTEVSLSQALEDVSRGGSPFAIVITQQHQIHRSCTVNIMFGTPQEHRNMPQADAMVLVARNYERYKNECREKEREEIARQAAKMADEAILQERERGGPEEGVRGGHPPAIQSLINLLADNRYLTAEETDKIINYLRERKERLMRSSTDSLPGPISRQPLGATSGASLKTQPSSQPLQSGQVLPSATPTPSAPPTSQQELQAKILSLFNSGTVTANSSSASPSVAAGNTPNQNFSTAANSQPQQRSQASGNQPPSILGQGGSAQNMGPRPGAPSQGLFGQPSSRLAPASNMTSQRPVSSTGINFDNPSVQKALDTLIQSGPALSHLVSQTTAQMGQPQAPMGSYQRHY [NCOA5] | -0.619 | 0.658 | 1.68 | 49.9 °C | 49.1 °C | 0.489 |
| MSETVICSSRATVMLYDDGNKRWLPAGTGPQAFSRVQIYHNPTANSFRVVGRKMQPDQQVVINCAIVRGVKYNQATPNFHQWRDARQVWGLNFGSKEDAAQFAAGMASALEALEGGGPPPPPALPTWSVPNGPSPEEVEQQKRQQPGPSEHIERRVSNAGGPPAPPAGGPPPPPGPPPPPGPPPPPGLPPSGVPAAAHGAGGGPPPAPPLPAAQGPGGGGAGAPGLAAAIAGAKLRKVSKQEEASGGPTAPKAESGRSGGGGLMEEMNAMLARRRKATQVGEKTPKDESANQEEPEARVPAQSESVRRPWEKNSTTLPRMKSSSSVTTSETQPCTPSSSDYSDLQRVKQELLEEVKKELQKVKEEIIEAFVQELRKRGSP [VASP] | 0.466 | 0.605 | 2.18 | 49.7 °C | 50.4 °C | 0.0947 |
| ROBO1 | 0.177 | -4.69 | -6.19 | 55.3 °C | 54.4 °C | -0.145 |
| MCAAQMPPLAHIFRGTFVHSTWTCPMEVLRDHLLGVSDSGKIVFLEEASQQEKLAKEWCFKPCEIRELSHHEFFMPGLVDTHIHASQYSFAGSSIDLPLLEWLTKYTFPAEHRFQNIDFAEEVYTRVVRRTLKNGTTTACYFATIHTDSSLLLADITDKFGQRAFVGKVCMDLNDTFPEYKETTEESIKETERFVSEMLQKNYSRVKPIVTPRFSLSCSETLMGELGNIAKTRDLHIQSHISENRDEVEAVKNLYPSYKNYTSVYDKNNLLTNKTVMAHGCYLSAEELNVFHERGASIAHCPNSNLSLSSGFLNVLEVLKHEVKIGLGTDVAGGYSYSMLDAIRRAVMVSNILLINKVNEKSLTLKEVFRLATLGGSQALGLDGEIGNFEVGKEFDAILINPKASDSPIDLFYGDFFGDISEAVIQKFLYLGDDRNIEEVYVGGKQVVPFSSSV [GDA] | 0.0143 | -1.49 | -2.29 | 61.9 °C | 63.7 °C | -0.0926 |
| HACL1 | -0.0836 | -1.09 | -0.922 | 56.6 °C | 56.1 °C | -0.168 |
| SON | -1.78 | 0.322 | 4.26 | 47.4 °C | 49.4 °C | 1.3 |
| MPKKFQGENTKSAAARARRAEAKAAADAKKQKELEDAYWKDDDKHVMRKEQRKEEKEKRRLDQLERKKETQRLLEEEDSKLKGGKAPRVATSSKVTRAQIEDTLRRDHQLREAPDTAEKAKSHLEVPLEENVNRRVLEEGSVEARTIEDAIAVLSVAEEAADRHPERRMRAAFTAFEEAQLPRLKQENPNMRLSQLKQLLKKEWLRSPDNPMNQRAVPFNAPK [CCDC124] | 0.214 | 0.653 | -5.08 | 57.1 °C | 53.7 °C | 0.537 |
| MGNRGMEELIPLVNKLQDAFSSIGQSCHLDLPQIAVVGGQSAGKSSVLENFVGRDFLPRGSGIVTRRPLILQLIFSKTEHAEFLHCKSKKFTDFDEVRQEIEAETDRVTGTNKGISPVPINLRVYSPHVLNLTLIDLPGITKVPVGDQPPDIEYQIKDMILQFISRESSLILAVTPANMDLANSDALKLAKEVDPQGLRTIGVITKLDLMDEGTDARDVLENKLLPLRRGYIGVVNRSQKDIEGKKDIRAALAAERKFFLSHPAYRHMADRMGTPHLQKTLNQQLTNHIRESLPALRSKLQSQLLSLEKEVEEYKNFRPDDPTRKTKALLQMVQQFGVDFEKRIEGSGDQVDTLELSGGARINRIFHERFPFELVKMEFDEKDLRREISYAIKNIHGVRTGLFTPDLAFEAIVKKQVVKLKEPCLKCVDLVIQELINTVRQCTSKLSSYPRLREETERIVTTYIREREGRTKDQILLLIDIEQSYINTNHEDFIGFANAQQRSTQLNKKRAIPNQGEILVIRRGWLTINNISLMKGGSKEYWFVLTAESLSWYKDEEEKEKKYMLPLDNLKIRDVEKGFMSNKHVFAIFNTEQRNVYKDLRQIELACDSQEDVDSWKASFLRAGVYPEKDQAENEDGAQENTFSMDPQLERQVETIRNLVDSYVAIINKSIRDLMPKTIMHLMINNTKAFIHHELLAYLYSSADQSSLMEESADQAQRRDDMLRMYHALKEALNIIGDISTSTVSTPVPPPVDDTWLQSASSHSPTPQRRPVSSIHPPGRPPAVRGPTPGPPLIPVPVGAAASFSAPPIPSRPGPQSVFANSDLFPAPPQIPSRPVRIPPGIPPGVPSRRPPAAPSRPTIIRPAEPSLLD [DNM2] | 0.212 | 1.01 | 1.14 | 50.5 °C | 50 °C | -0.144 |
| MNSNVENLPPHIIRLVYKEVTTLTADPPDGIKVFPNEEDLTDLQVTIEGPEGTPYAGGLFRMKLLLGKDFPASPPKGYFLTKIFHPNVGANGEICVNVLKRDWTAELGIRHVLLTIKCLLIHPNPESALNEEAGRLLLENYEEYAARARLLTEIHGGAGGPSGRAEAGRALASGTEASSTDPGAPGGPGGAEGPMAKKHAGERDKKLAAKKKTDKKRALRRL [UBE2S] | 0.347 | 1.11 | 0.461 | 51 °C | 50.9 °C | 0.0837 |
| ABCD1 | -0.353 | 0.954 | 0.963 | 49.9 °C | 49.7 °C | -0.0995 |
| MRKMLAAVSRVLSGASQKPASRVLVASRNFANDATFEIKKCDLHRLEEGPPVTTVLTREDGLKYYRMMQTVRRMELKADQLYKQKIIRGFCHLCDGQEACCVGLEAGINPTDHLITAYRAHGFTFTRGLSVREILAELTGRKGGCAKGKGGSMHMYAKNFYGGNGIVGAQVPLGAGIALACKYNGKDEVCLTLYGDGAANQGQIFEAYNMAALWKLPCIFICENNRYGMGTSVERAAASTDYYKRGDFIPGLRVDGMDILCVREATRFAAAYCRSGKGPILMELQTYRYHGHSMSDPGVSYRTREEIQEVRSKSDPIMLLKDRMVNSNLASVEELKEIDVEVRKEIEDAAQFATADPEPPLEELGYHIYSSDPPFEVRGANQWIKFKSVS [PDHA1] | 0.149 | -1.47 | -2.37 | 52.1 °C | 51.5 °C | -0.122 |
| MMAAGAALALALWLLMPPVEVGGAGPPPIQDGEFTFLLPAGRKQCFYQSAPANASLETEYQVIGGAGLDVDFTLESPQGVLLVSESRKADGVHTVEPTEAGDYKLCFDNSFSTISEKLVFFELIFDSLQDDEEVEGWAEAVEPEEMLDVKMEDIKESIETMRTRLERSIQMLTLLRAFEARDRNLQEGNLERVNFWSAVNVAVLLLVAVLQVCTLKRFFQDKRPVPT [TMED1] | 0.437 | 2.89 | 2.9 | 55.1 °C | 57.2 °C | -0.147 |

From the supplement of paper PMC5998384
